Test results published in patent US20020022718A1, “Genes identified as required for proliferation of E. coli” (priority 1999, published 2002).

B1: EcXA154: antisense clone insert to E. coli b1983 (nucleic acid, listed as Escherichia coli)
antisense: TTCTGTAATCAGAAAAAGAAGAACTGGAATTTTAATAAATATTATTTCTCTGGGAACGGGGGGGTATAATCAATATGACGAGTTGAATATTATATTTTTTATAAGAATTATATGAGATTAAAGAAATCTGCCGTAAAGACAGATTTCTTTAAAAGATAATTAGAGATTTGCGACGTTATGATAAACTTTTTGTACATCGTCGTCATCTTCAAG
B2: EcXA159: antisense clone insert to E. coli b0482 (nucleic acid, listed as Escherichia coli)
antisense: AAAAAATGAAATTCCTCTTTGACGGGCCAATAGCGATATTGGCCATTTTTTTAGCGCAACATTTGCGGCAAATTCCCTTCTCCATACAGGTGTAGTGCACCGACCGCGACCACATATCGCCCCGGCGGCATGGCGCGTAATTTATCCCGCCAGGCGAGATTTCGCTGATGCATCAGCACATCGTACAGCGACTGACTGAACGTATTGGGCAGCGTTATATCATTATTTTGCGGCGGTGCATTCAGCCACCAGCTCATCATTTGTTGCAGCAACCGTGCGTTGGTATGCCAGTGGGTCAGCGTATCGTCCAGCAGCGCCAGTCCTTTGTCAGGGAGCTGGAGCAACATGGCAATCTGGTTTTCAGCCCCTTCCAGTTCAATCACGGGTTTATGTTGTTGCTTC
B3: EcXA158: antisense clone insert to E. coli b2519 (nucleic acid, listed as Escherichia coli)
antisense: GCTGGTGCCCGTTTTCCATGCCAGTGGGGCGACGCGCGGCAAGGCACTATCCGGCAAGGGTTGCGCTTCATCAGCCATAATCCGGCGAATGATCCACGCCGCCCCCGACGACATTAAAGGCCGTTCAAGCAGCGGATCGTCAGGCTGTAAGCGCAATTTGCCTGCCTTGCCGTGGCGAGCAAACGCGGTA
B4: EcXA148: antisense clone insert to E. coli rffM (nucleic acid, listed as Escherichia coli)
antisense: GCAAATGTTTTCGTAATTCAGGAGAAATGGCAAATAAAGCATTAAAAATTTGAATGCTTTGTGTAATAAAAAAGCAGACAGGCGACGGAGTGACCACTCCGTCGCTTTACAAAGAGAGGAAAATCATAGGTTGCCGGTGTAGTGCCAGCGTAAATAACGCA
B5: EcXA153: antisense clone insert to E. coli yjbI (nucleic acid, listed as Escherichia coli)
antisense: CAACATCTCATGTCTGGATTTGTAGATATACGTGGAATTCCAATTGGTATCTTTTGTAGGATTCAACATATCATGTAAGCGCTGGGAGCTTACCACCATAACTGGCCCATCATCGACTGAGGAGAACAGGATAAAGATATTATCGTTTCGTGTTAATTCATTCGTGTTAAAGGTTCTTAAATTATCTTCAGTTTCTATAAATATAGG
B6: EcXA145: antisense clone insert to E. coli thyA (nucleic acid, listed as Escherichia coli)
antisense: TCGAAGAATTTAACGGAGGGTAAAAAAACCGACGCACACTGGCGTCGGCTCTGGCAGGATGTTTCGTAATTAGATAGCCACCGGCGCTTTAATGCCCGGATGCGGATCGTAGCCTTCAATCTCAAAGTCTTCGAAACGGTAGTCGAAGATGGATTCGGGTTTACGTTTGATAATCAACTTCGGC
B7: EcXA151: antisense clone insert to E. coli dctA (nucleic acid, listed as Escherichia coli)
antisense: TGTCGAGCATACGCGGCAGCGCCGACTCGGAAGATGAAGTCCCCAGTACAATCAGCAGTTCTTCACGGATGTAGCGGATAAATTTGAAGATACTGAAACCAGTCGCTTTAGCGATTGAACCCAATACCAGCACCACAAACAGGATACAGGTAATGTAGAAACAGATAATCAGCTGCCCCAGTTGCACCAGTGTGCCGACGCCGTATTTACCGATGGTAAACGCCATTGCCCCGAACGCACCAATAGGTGCCAGA
B8: EcXA150: antisense clone insert to E. coli spoT (nucleic acid, listed as Escherichia coli)
antisense: CCGGGGCTGACGTGGGCGATAATCGGGTCGCCAGGAATAGGGCGGCAGCATTTCGCAAAGGTGATCAGCACGCCATCGGCACCTTTAATGGGCAGATGTCCGTGGCTTTGGGTTGCCGGTGGAATGGAGGCGTCCCCATGTTGCAGATTTTTCGCGACCACCACGCTCATTGCGTTACCA
B9: EcXA142: antisense clone insert to E. coli rpmJ, rpsM (nucleic acid, listed as Escherichia coli)
antisense: TGCGATTACGGCATGCTTATGATCAGGAATGTTAATGCCTGCTATACGGGCCACTATGCACTCCTACTATTTAATATGTACGTTCCATGCTGAAAAGCCCGTTTTCAGGATACTCAAATGGAAACGCACAGACATACAAAAGATTGGCTGGCTAATCTAGCCAGCTCAACCCAACTTTGCAAGAAAAATATGCGAAAAAATCAGCCTTGGCGCTGTTTATGCTTCGGCTCGGCACTGCAAATCACACGGATGACA
B10: EcXA152: antisense clone insert to E. coli bcr (nucleic acid, listed as Escherichia coli)
antisense: AGCTGATCGATGGTGTTTGCCAACGCACACGCCACCGCGGCGGCGGCAAACACCANCGTACCGCCGAGCACCACCGGCTTACGCCCGAAGCTGTCTGCCATCGGCCCGTAGATTAACTGCCCCAACGCAAAGCCCAGAATATAAGTACTGAGGGTCATCTGCGTACTGCCCGNCGGTACGCCAAACTGCGCTGAAATTACCGGTAGCGCGGGCAGATACATATCAATCGACAGCGGCATCAACATGGCCAGCAGGCCAAGGATAAAAACAATAGCAAACGACGAATGCTGTCGGGTGGTC
modifications: misc_feature (1)...(300): n = A,T,C or G
notes: antisense clone insert to E. coli bcr
B11: EcXA156: antisense clone insert to E. coli yihN (nucleic acid, listed as Escherichia coli)
antisense: AAATAGACCGGCATACTTTCGTGCGGCAGCATAATCAACAGTACGAGCGCAGCGGTACTAATGATAAAGGTGTAGCATAGATATTTACTTGGCGATTTCAGGATCTTATCTGAAATCATGCCACCAATCGGTCCACCAATCATTTTCAGACAGT
B12: EcXA147: antisense clone insert to E. coli b1111 (nucleic acid, listed as Escherichia coli)
antisense: TAAATTCCGCGTATAGCGTGGGCGCTTTGGCTCCGGTCGCTTCGACGAGGTCCGCAAGAGAAGTCGCTTCATAACCGTGTTGCCAGAACAATTTCATGGCCTTATCAAGCGCGGCATCCCTGTCGAACACTTTTGGGCGGCCACGGCTTTTTTTTACACATTG
B13: EcXA146: antisense clone insert to E. coli pstB (nucleic acid, listed as Escherichia coli)
antisense: GTAGAAGTTCAAATTACGAACCTGAATTTTACTCGGGGCAGTTTCAACCATACTCATTGCAATCTTTTCCTCATCGTGCCTGATGCACTTCGCTAATCAGGCTTACCGTAGGCCGGATCAGG
B14: EcXA143: antisense clone insert to E. coli b2846 (nucleic acid, listed as Escherichia coli)
antisense: AACGTAAAACTTTACGTAAATTAACATGGTTAACATTTATGCCACTATTGTTTGTAAATTCATATTTCGTAATGCTTCTGAATTTTTCGTGTGATGGTTTTAAATACTATGGTGTTTACTCTTGAGGGGACGGCCTATTTATAAAATACGGACATTTCAATAAATGCCCGTATAAACAGAGTATGATTCTGGCTGGTCGTTGAGTATCAATGTTGGACCGAATGTGAACGAATAAATAATTCGTTTATTTTACCACCCATTCTCTTTTCGATTCGTTGCTTGTACGCGTAGATGCTACGGATATCCATATCCAGAACTTCAGCAATCTGATATGGATTATAACCAGAAACCATATACCCCATTATGGTGAATTCCATCTGAGTTAATGT
B15: EcXA157: antisense clone insert to E. coli rpsC, rplV (nucleic acid, listed as Escherichia coli)
antisense: TCCTTAGTCAGGTACTGACGTACTTTAAAATCGCTGTCCAGGTTGTCAGCGAATTCTTTGGTGTTCGCAAACCAGGTAGAGTTCCATGGTTTTACAATACCCAGGCGAATACCATTAGGATGTACTTTCTGACCCATTGCTAGTCTCCAGAGTCTCAGCGATCGGACACAACCACAGTGATGTGGCTGGTG

test system: Klebsiella pneumoniae; experiment: Growth inhibition by induced E. coli antisense RNA in Klebsiella pneumoniae; assay type: cell-based; design: key: +: a positive in Table V below means that at least 10 fold more cells were required to observe a colony on the induced plate than on the non-induced plate; −: If there was no effect of antisense RNA expression in a microorganism, the clone is minus in Table V below; details: antisense RNA expression induced with IPTG, serial dilution plating
Protocol: To study the effects of transcriptional induction in liquid medium, growth curves were carried out by back diluting cultures 1:200 into fresh media with or without 1 mM IPTG and measuring the OD450 every 30 minutes (min). To study the effects of transcriptional induction on solid medium, 10^2, 10^3, 10^4, 10^5, 10^6, 10^7 and 10^8 fold dilutions of overnight cultures were prepared. Aliquots of from 0.5 to 3 μl of these dilutions were spotted on selective agar plates with or without 1 mM IPTG. After overnight incubation, the plates were compared to assess the sensitivity of the clones to IPTG.
Molecule No. EcXA190, encoding a portion of the b3052 gene of Escherichia coli, was either transformed directly into Enterobacter cloacae, Salmonella typhimurium and/or Klebsiella pneumoniae or subcloned into an expression vector functional in these species and the subclones transformed into these organisms. Suitable expression vectors are well known in the art. These expression vectors were introduced into Enterobacter cloacae, Salmonella typhimurium and/or Klebsiella pneumoniae cells that were then assayed for growth inhibition according to the method of Example 1. After growth in liquid culture, cells were plated at various serial dilutions and a score determined by calculating the log difference in growth for INDUCED vs. UNINDUCED antisense RNA expression as determined by the maximum 10 fold dilution at which a colony was observed. If there was no effect of antisense RNA expression in one organism, the clone is given a score of zero “0” in that organism. In contrast, a score of “8” means that 10^8 times more cells were required to observe a colony formed on the induced state than in the non-induced state under the conditions used and in that organism.
In addition, the above methods were validated using other antisense nucleic acids which inhibit the growth of E. coli which were identified using methods similar to those described above. Expression vectors which inhibited growth of E. coli upon induction of antisense RNA expression with IPTG were transformed directly into Enterobacter cloacae, Klebsiella pneumonia or Salmonella typhimurium. The transformed cells were then assayed for growth inhibition according to the method of Example 1. After growth in liquid culture, cells were plated at various serial dilutions and a score determined by calculating the log difference in growth for INDUCED vs. UNINDUCED antisense RNA expression as determined by the maximum 10 fold dilution at which a colony was observed. If there was no effect of antisense RNA expression in a microorganism, the clone is minus in Table V below. In contrast, a positive in Table V below means that at least 10 fold more cells were required to observe a colony on the induced plate than on the non-induced plate under the conditions used and in that microorganism.

Molecule | Sensitivity of K. pneumoniae to antisense nucleic acid (growth inhibition, induced vs. uninduced)
B1 | −
B2 | −
B3 | −
B4 | −
B5 | −
B6 | −
B7 | −
B8 | −
B9 | −
B10 | −
B11 | −
B12 | −
B13 | −
B14 | −
B15 | −
